B1: antibody 43 (antibody, V domains shown)
VH: QVALKESGPGILQPSQTLSLTCSFSGFSLSTFGMGVGWIRQSSGKGLEWLANIWWDDDKYYNPALKSRLTISKDASKNQAFLKIANVDTADTATYYCARIGNYGSNYWYFDVWGTGTTVTVSS
VL: QIVLTQSPAIMSASPGERVTMTCSANSRISYMYWYQQKPGSSPRLLIYDTSNLASGVPVRFSGSGSGTSYSLTISRMEAEDAATYNCQQWSSYPLTFGAGTKLELK
notes: Mouse IgG, kappa light chain; also called clone #43
B2: antibody 5 (antibody, V domains shown)
VH: QVTLKESGPGILQPSQTLSLTCSFSGFSLSTFGMGVGWIRQPSGKGLEWLAHIWWDDEKYYNSALKSRLTISKATSKNQAFLKIANVDTADTATYYCARISNYGSNYWYFNVWGTGTTVTVSS
VL: QVVLTQSPALMSASPGEKVTMTCSAGSSVSCMYWYQQKPGSSPRVLIYDTSNLASGVPARFTGSGSGTSYSLTISRMEAEDAASYYCQQWNSYPLTFGAGTKLELK
notes: Mouse IgG, kappa light chain; also called clone #5; purified antibody 5
B3: antibody 44 (antibody, V domains shown)
VH: QVTLKESGPGILQPSQTLSLTCSFSGFSLSTFGMGVGWIRQPSEKGLEWLAHIWWDDDKYYNPALKSRLTISKDTSKNQIFLKITNVDTAETATYYCSRIGNYGSNYWYFDVWGTGTTVTVSS
VL: QIVLTQSPAVMSASPGEKVTMTCTASSSVYYMYWYQQTPGSSPRLLIYDTSNLASGVPVRFSGSGSGTSYSLTISRMEAEDAATYYCQQWNTYPLTFGAGTKLELK
notes: Mouse IgG, kappa light chain; also called clone #44; m44
B4: antibody 51 (antibody, V domains shown)
VH: QVQLQQSGAELVKPGASVKISCKASGYTFSNYWMNWVKQRPGKGLEWIGQIYPGDGDTKYNGKFKNKATLTADKSSSTAYMQFSSLTSEDSAVYFCARGDLVFVYWGLGTLVTVSA
VL: DVQITQSPSYLAVSPGETITINCRASKNIRKYLAWYQEKPGKTNKLLIYSGSTSQSGVPSRFSGSGSGTDFTLTISSLEPEDFAMYYCQQHNEYPYTFGGGTKLEIK
notes: Mouse IgG, kappa light chain; also called clone #51
B5: antibody 48 (antibody, V domains shown)
VH: QVQLQQSGTELVRPGTSVKVSCKASGYAFTNYLIEWVKQRPGQGLEWIGVINPGSGFTKYNEKFKGKATLTADKSSSTVYMHLSSLTSEDSAVYFCARGLYRAMDYWGQGTSVTVSS
VL: DIQMTQSPASQSASLGESVTITCLASQTIATWLAWYQQKPGKSPQLLIYGATTLADGVPSRFSGGGSGTKFSFKISSLQAEDFVSYYCQQLYSTPYTFGGGTKLEIK
notes: Mouse IgG, kappa light chain; also called clone #48; purified antibody 48
B6: antibody 47 (antibody, V domains shown)
VH: QVQLQQSGAELVRPGTSVKVSCKASGYAFTNYLIEWVKQRPGQGLEWIGVINPGSGFTNYNEKFKGKAILNADKSSSTAYMQLISLTSEDSAVYFCARDLKRAMDHWGQGTSVTVSS
VL: DIQMTQSPASQSASLGESVTITCLASQTIGTWLAWYQQKPGKSPQLLIHAATSLADGVPSRFSGSGSGTKFSFKISSLQAEDFVSYYCQQIYSSPYTFGGGTKLEIK
notes: Mouse IgG, kappa light chain; also called clone #47
B7: antibody 50 (antibody, V domains shown)
VH: QVQLQQSGAELVRPGASVKVSCKASGYAFSNYLIEWVKQRPGQGLEWIGVINPGSGFTKYNEKFKGKATLTADKSSSTAYMQLSSLTSEDSAVYFCARGLYRAMDYWGQGTSVTVSS
VL: DIQMTQSPASQSASLGESVTITCLASQTIGTWLAWYQQKPGKSPQLLIYAAASLADGVPSRFSGGGSGTKFSFKISSLQAEDFVNYYCQQIYSTPYTFGGGTKLEIK
notes: Mouse IgG, kappa light chain; also called clone #50; purified antibody 50
B8: antibody 16 (antibody, V domains shown)
VH: QVTLKESGPGILQPSQTLSLTCSFSGFSLSTFALGVGWIRQPSGRGLEWLAHIWWDDDKYYNPALKSRLTISKDTSKNHVFLKIANVDTADTATYYCARITTYYYGMDYWGQGTSVTVSS
VL: DIVLSQSPATLSVTPGDSVSLFCRASQSIGNHLHWYQQESHASPRLLIKYASQSISGIPSRFSGSGSGTDFTLSINSVETEDFGMYFCQQSYNWPLTFGAGTKLELK
notes: Mouse IgG, kappa light chain; also called clone #16; m16
B9: antibody 3 (antibody, V domains shown)
VH: QVTLKESGPGILQPSQTLSLTCSFSGFSLTTFAMGIGWVRQPSGKGLEWLAHIWWDGEKYNNPVLKSRLTISKDTSKNQVFLRIANVDTPDTATYYCARISSIYYIIDNWGQGTSVTVSS
VL: DIVLTQSPATLSVTPGHSVSLSCRASQSISNNLHWYQKKSHESPRLLIKYVSQSISGIPSRFSGSGSGTDFTLSINSVETEDFGMYFCQQSYNWPLTFGAGTKLELK
notes: Mouse IgG, kappa light chain; also called clone #3; purified antibody 3

Columns and labels:
[1] = molecular target: T1, dog iRhom2 full length wild type, C-terminally tagged with 3 consecutive copies of the T7 epitope (dog, UniProt Q00M95 1-827); experiment: FACS, MEF-DKO-Dog-iR2-FL-WT-T7 cells
T1 construct: whole, on cells; also called Dog-iR2-FL-WT-T7
T1 sequence: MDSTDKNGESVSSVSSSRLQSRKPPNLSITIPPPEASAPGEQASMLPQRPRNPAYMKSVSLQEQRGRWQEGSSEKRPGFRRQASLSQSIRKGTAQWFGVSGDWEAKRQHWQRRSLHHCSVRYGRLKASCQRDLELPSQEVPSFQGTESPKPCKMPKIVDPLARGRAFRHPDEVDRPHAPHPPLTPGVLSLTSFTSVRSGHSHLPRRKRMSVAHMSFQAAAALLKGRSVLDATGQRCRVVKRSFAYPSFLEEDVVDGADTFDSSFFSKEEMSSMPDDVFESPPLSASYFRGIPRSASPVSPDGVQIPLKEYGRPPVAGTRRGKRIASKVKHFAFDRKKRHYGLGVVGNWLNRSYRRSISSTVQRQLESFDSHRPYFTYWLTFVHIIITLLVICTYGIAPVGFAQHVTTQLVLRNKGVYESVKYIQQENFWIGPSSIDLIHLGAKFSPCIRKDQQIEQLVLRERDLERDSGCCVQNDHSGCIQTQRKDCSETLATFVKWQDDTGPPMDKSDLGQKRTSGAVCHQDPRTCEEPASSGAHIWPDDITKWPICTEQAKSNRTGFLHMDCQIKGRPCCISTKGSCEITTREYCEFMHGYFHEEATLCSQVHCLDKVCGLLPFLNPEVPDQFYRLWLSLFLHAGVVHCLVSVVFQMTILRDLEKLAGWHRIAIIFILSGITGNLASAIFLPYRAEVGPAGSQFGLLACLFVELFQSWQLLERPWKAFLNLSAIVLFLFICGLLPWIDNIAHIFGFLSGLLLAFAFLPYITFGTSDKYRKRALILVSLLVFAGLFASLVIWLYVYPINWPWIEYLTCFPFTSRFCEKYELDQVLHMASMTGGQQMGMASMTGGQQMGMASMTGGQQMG
Description: In brief, immortalized MEF-DKO-EV control cells, MEF-DKO-rhesus-iR2-FL-WT-T7 cells, MEF-DKO-cyno-iR2-FL-WT-T7 cells, MEF-DKO-dog-iR2-FL-WT-T7 cells and MEF-DKO-rabbit-iR2-FL-WT-T7 cells, as well as their respective iRhom1 counterparts, were harvested with 10 mM EDTA in PBS, washed and resuspended in FACS buffer (PBS, 3% FBS, 0.05% sodium azide), and seeded in Nunc U-bottom 96-well plates (Thermo Fisher Scientific, USA) at approximately 3×10⁵ cells per well. To pellet cells and remove supernatants, the plates were centrifuged at 1,500 rpm and 4° C. for 3 minutes. For primary staining, cells were resuspended in 100 μl per well of either FACS buffer alone (controls), mouse monoclonal anti-T7 IgG (Merck Millipore, USA) at 3 μg/ml FACS buffer or the antibodies of the present disclosure also at 3 μg/ml FACS buffer and incubated on ice for 1 hour. Afterwards, plates were centrifuged at 1,500 rpm and 4° C. for 3 minutes and washed twice with 200 μl per well of FACS buffer. For secondary staining, cells were spun down and resuspended in 100 μl per well of PE-conjugated goat anti-mouse IgG F(ab′)2 detection fragment (Dianova, Germany) diluted 1:100 in FACS buffer. Protected from light, the cell suspensions were incubated on ice for 1 hour. Plates were then centrifuged at 1,500 rpm and 4° C. for 3 minutes and washed three times with 200 μl per well of FACS buffer. Finally, cells were resuspended in 150 μl per well of FACS buffer and analyzed using a BD Accuri™ C6 Plus flow cytometer (Becton Dickinson, Germany).

[2] = molecular target: T2, human iRhom2 (inactive rhomboid protein 2, isoform 1), endogenously expressed on human cells (human, UniProt Q6PJF5 1-856); experiment: cell-based or functional assay
T2 sequence: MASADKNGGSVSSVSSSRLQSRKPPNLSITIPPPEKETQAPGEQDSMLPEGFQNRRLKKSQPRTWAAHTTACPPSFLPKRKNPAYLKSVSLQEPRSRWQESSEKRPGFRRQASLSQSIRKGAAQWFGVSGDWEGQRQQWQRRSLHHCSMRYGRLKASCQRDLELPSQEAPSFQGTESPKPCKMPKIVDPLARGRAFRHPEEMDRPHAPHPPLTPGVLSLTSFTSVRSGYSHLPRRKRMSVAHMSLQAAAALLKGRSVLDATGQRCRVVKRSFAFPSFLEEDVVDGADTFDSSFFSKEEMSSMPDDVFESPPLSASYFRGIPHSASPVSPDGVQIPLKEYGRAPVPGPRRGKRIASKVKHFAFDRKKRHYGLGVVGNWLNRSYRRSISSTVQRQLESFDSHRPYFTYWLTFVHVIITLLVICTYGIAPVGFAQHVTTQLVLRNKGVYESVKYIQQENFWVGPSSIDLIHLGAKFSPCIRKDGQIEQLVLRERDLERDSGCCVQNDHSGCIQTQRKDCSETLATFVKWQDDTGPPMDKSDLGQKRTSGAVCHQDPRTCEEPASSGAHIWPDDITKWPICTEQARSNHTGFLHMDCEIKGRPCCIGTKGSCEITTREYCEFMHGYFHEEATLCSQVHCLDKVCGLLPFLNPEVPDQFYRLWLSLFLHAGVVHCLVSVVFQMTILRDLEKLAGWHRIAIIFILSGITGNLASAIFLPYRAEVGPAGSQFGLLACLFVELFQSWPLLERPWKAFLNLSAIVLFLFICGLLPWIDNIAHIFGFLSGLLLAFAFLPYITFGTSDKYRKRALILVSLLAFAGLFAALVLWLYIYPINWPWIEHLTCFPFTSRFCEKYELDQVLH

Binder	binding result [1]	inhibition of LPS-induced release of TNFα from THP-1 cells, 10 µg/ml, antibody purified from hybridoma [2] [% inhibition]	inhibition of LPS-induced release of TNFα from THP-1 cells, recombinant antibody [2] [% inhibition]	inhibition of PMA-induced release of IL-6R from THP-1 cells, 1 µg/ml [2] [% inhibition]	inhibition of PMA-induced release of IL-6R from U-937 cells, 1 µg/ml [2] [% inhibition]	inhibition of PMA-induced release of TGFα from PC3 cells, 1 µg/ml [2] [% inhibition]	inhibition of PMA-induced release of TNFα from U-937 cells, 1 µg/ml [2] [% inhibition]	other results
B1	binds	74.8	78.5	72.9	76.1	12.4	78.3	
B2		69	70.5	64.1	67		63.6	
B3	binds	32.2	73.2	73	71.8	14.1	76.5	inhibition of PMA-induced release of HB-EGF from THP-1 cells, 3 µg/ml [2]: 67.5 % inhibition; inhibition of PMA-induced release of HB-EGF from U-937 cells [2]: 100 % inhibition; inhibition of PMA-induced release of IL-6R from U-937 cells, 3 µg/ml [2]: 82 % inhibition; inhibition of PMA-induced release of TNFα from U-937 cells, 3 µg/ml [2]: 86.3 % inhibition
B4	binds							
B5	binds							
B6	binds							
B7	binds							
B8		65.4	70.7	72.5	77.7	13.9	91.6	inhibition of LPS-induced release of TNFα from PBMCs of healthy donors, 1 µg/ml [2]: 81.3 % inhibition; inhibition of LPS-induced release of TNFα from human macrophages of healthy donors [2]: 85.8 % inhibition; inhibition of PMA-induced release of HB-EGF from PBMCs of healthy donors, 1 µg/ml [2]: 71.6 % inhibition; inhibition of PMA-induced release of HB-EGF from THP-1 cells, 3 µg/ml [2]: 71.9 % inhibition; inhibition of PMA-induced release of HB-EGF from U-937 cells [2]: 99.6 % inhibition; inhibition of PMA-induced release of IL-6R from PBMCs of healthy donors, 1 µg/ml [2]: 84.3 % inhibition; inhibition of PMA-induced release of IL-6R from U-937 cells, 3 µg/ml [2]: 77.4 % inhibition; inhibition of PMA-induced release of TNFα from U-937 cells, 3 µg/ml [2]: 91.9 % inhibition
B9		71.2	59.9	46.7	61.8		65.9	
